In one series the target is Fibrinogen (UniProt P02671).
Series [1] deals with Ecarin-activatable E-WE Prethrombin-2 (W215A/E217A/N282D/P283G).

From patent publication US20120164129 come the findings set out here.

Sequence of UniProt P02671 (P02671 20-629, chain 1 of 3): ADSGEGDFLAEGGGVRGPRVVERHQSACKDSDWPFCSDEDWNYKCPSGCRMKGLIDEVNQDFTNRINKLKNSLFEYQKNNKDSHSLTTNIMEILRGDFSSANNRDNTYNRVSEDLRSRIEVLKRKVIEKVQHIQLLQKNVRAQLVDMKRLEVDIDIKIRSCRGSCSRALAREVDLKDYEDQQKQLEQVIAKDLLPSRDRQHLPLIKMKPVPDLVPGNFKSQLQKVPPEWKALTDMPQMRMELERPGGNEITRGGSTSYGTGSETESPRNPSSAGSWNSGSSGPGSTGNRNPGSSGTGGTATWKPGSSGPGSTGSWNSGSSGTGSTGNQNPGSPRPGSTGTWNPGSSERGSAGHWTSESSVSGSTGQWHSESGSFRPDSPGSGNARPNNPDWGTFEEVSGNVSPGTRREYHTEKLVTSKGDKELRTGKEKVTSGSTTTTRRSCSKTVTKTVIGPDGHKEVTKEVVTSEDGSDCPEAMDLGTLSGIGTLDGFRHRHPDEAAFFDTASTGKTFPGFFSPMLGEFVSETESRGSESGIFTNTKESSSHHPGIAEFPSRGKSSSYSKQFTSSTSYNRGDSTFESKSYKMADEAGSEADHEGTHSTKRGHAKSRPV
Sequence of UniProt P02671 (chain, as listed by the source, chain 2 of 3): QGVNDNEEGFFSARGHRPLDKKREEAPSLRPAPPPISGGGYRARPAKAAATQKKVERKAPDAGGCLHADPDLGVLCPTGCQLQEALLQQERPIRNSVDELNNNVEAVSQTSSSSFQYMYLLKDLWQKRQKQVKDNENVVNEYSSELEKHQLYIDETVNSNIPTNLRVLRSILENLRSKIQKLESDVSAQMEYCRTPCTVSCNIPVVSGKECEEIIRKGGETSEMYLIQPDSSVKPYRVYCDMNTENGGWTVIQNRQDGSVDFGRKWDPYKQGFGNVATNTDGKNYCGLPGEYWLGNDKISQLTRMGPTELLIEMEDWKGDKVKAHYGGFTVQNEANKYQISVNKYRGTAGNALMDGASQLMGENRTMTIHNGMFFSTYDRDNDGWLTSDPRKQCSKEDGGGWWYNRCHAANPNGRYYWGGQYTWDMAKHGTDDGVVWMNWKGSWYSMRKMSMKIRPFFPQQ
Sequence of UniProt P02671 (chain, as listed by the source, chain 3 of 3): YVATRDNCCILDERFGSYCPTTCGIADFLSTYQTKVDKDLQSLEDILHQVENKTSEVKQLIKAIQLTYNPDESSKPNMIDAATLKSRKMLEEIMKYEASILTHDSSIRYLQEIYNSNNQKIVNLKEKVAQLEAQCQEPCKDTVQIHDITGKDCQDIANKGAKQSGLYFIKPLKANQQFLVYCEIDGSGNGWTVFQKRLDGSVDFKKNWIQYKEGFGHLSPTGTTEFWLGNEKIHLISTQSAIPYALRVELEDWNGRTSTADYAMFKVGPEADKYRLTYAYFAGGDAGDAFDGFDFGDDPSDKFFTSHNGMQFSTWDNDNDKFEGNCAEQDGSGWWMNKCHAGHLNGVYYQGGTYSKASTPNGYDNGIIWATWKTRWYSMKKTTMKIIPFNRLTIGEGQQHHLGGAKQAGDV

For “E. coli-derived recombinant E-WE thrombin (W215A/E217A), prepared from E-WE prethrombin-2 expressed in E. coli”, the specificity toward fibrinogen result in the series with Fibrinogen is given as “consistently shows lower specificity toward fibrinogen compared to the BHK-expressed construct”.
For the molecule “WE thrombin (W215A/E217A) prepared from WE prethrombin-1 expressed in BHK cells”, the activity toward fibrinogen entry in the series with Fibrinogen is “BHK produces a construct with significantly higher activity toward FPR and fibrinogen”.

B1: Echis carinatus snake venom prothrombin activator (ecarin) (protein)
chain: VPPHERKFEKKFIELVVVVDHSMVTKYNNDSTAIRTWIYEMLNTVNEIYLPFNIRVALVGLEFWCNGDLINVTSTADDTLHSFGEWRASDLLNRKRHDHAQLLTNVTLDHSTLGITFVYGMCKSDRSVELILDYSNITFNMAYIIAHEMGHSLGMLHDTKFCTCGAKPCIMFGKESIPPPKEFSSCSYDQYNKYLLKYNPKCILDPPLRKDIASPAVCGNEIWEEGEECDCGSPADCRNPCCDAATCKLKPGAECGNGECCDKCKIRKAGTECRPARDDCDVAEHCTGQSAECPRNEFQRNGQPCLNNSGYCYNGDCPIMLNQCIALFSPSATVAQDSCFQRNLQGSYYGYCTKEIGYYGKRFPCAPQDVKCGRLYCLDNSFKKNMRCKNDYSYADENKGIVEPGTKCEDGKVCINRKCVDVNTAY
Take B1: in series [1], the “proteolytic cleavage at the engineered ecarin site” value was “Cleavage also occurred at the engineered ecarin site that had been introduced preceding the A chain”; the “proteolytic cleavage between the A and B chains” value is “The expected cleavage took place between the A and B chains to form an A chain-extended E-WE thrombin”.
